Test results as given in the domain aggregation screens of Martell et al. (2025).

Test: soluble fraction after stress (log2 fold change); higher = more stays soluble; pooled small domains, quantitative proteomics
Settings: stress: 75 degC
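Further: 20 min heating vs room temperature control held 20 min.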

Row | Sequence | soluble fraction (log2)
1 | HMGKKGPELSENEKSIFSILSKSGSMDLTTLKEASGLSNKQWDKGIKGLGKHGLTKVIKTEDALLVEVV | 0.0471
2 | HMWWTPIILRDALFGVQRFEDFQKNLDVSRATLSSRLTRLVDEGLMEKVEYQQHPVRHEYVLTEKGR | -0.234
3 | HMTFNEPSPKEIMDYSLSRGYKVDADAFIDFYRGKAKAYGKEGLWLDGRGRLVKDWRAKLRVVWFKDENKL | -1.36
4 | HMQDFEEILKNAKIEDFKHTQTGEDLKVLKIEDKIEDFKGFNAYLVKNQIAYYSKFARGFVVKNIEKLQGV | 0.202
5 | HMLPSMENWLGELSFWQTPWWERRDFSTFDNIAQSKEELDEFMSRDDNGAILERMQDPINTIEAE | -0.285
6 | HMGMGIGQIIKEKRTALKMTQNELAERLGVSQQSVTGWENNAAVPRESAVRGMMDIFGLSRNELFGEP | 0.389
7 | HMKETLSDTVSRKLEDMITTQMKAGNRLPTEMVLAEMYSVGRSTIRESLKALSSKGLIVRKKDGTFVSDRV | -0.422
8 | HMERTQSIEAAREQLGEVTKDNVFETETLGALAILKENEPGEYAKIKADLKGKINMNDLERAVKKAAADQR | 1.02
9 | HMDAVTYAKGSSGETVREIQQLLLDWGYYSGEVDGIFGSRTEDAVEYFQRKNGLTVDGKVGPATLEALGIS | -0.0808
10 | HMDGQPLSERQQEILRWVAEGLSNREIGERLNITPNTVRDHLSEVMRRLEVSNRTSAVSTAFHLGLLP | -0.0654
11 | HMFLPETEVKSFFHRGITKISPSLAMDIADFFRMPFAVILKRALALEVISDEQYRSFMTVKPEHV | 0.137
12 | HMTVDYDKFTKDTVVQHNKFGKGVIIMTSGDGEDKIASIAFQGLGVKRFSLAIAASNLKILGKVNED | -2.48
13 | HMDPIATLTPREREVLSLMAEGRSNGAIAAALVVGDGAVEKHVSNIFQKLELTPAEGDHRRVLAVLRWLE | -0.909
14 | HMNIKYDFPTNSPLEMMRNLFDSNSQIINDLKDGFAMANSLNEQGLANFFAERIDKHQFWSWQLSASL | -0.201
15 | HMRGADNAASILKEVGPHPEDGKPITVRSGRYGPYVKHGTTNATLPKDIKPEEITLDEAIALINERVAKG | 0.018
16 | HMLYGRRFQVEGLNLERYLRAAADSGIPLKGARRFGRTLTGVAAEEHMAALEALARQGGWLFTPLEAVGAN | -0.948
17 | HMSMEKNWVPSEDVIEILTRAGMNENFIRELIPEFIIYWSERKDVLISYDSKFIEHARLKWAQHNAE | 0.454
18 | HMKPQKRYLFEEVLTFLKHNSEKSFNYKQLGAAMEISNESDRFTLLETLEELKHQGFVVEKEIGKYQAKE | -1.25
19 | HMGNRWENLISNKMIDDVDEELLRKYIAQAHDAGRIAISYTDRKTVLNQLELTDGDRLLNAGKVLFSD | -0.392
20 | HMKIEETLGKTAQVYIPIPQYLSGIGKVTLSVRGSLRELDAMTEEEKIPSNTIVRIVKVQDQVLFVKRA | -3.77
21 | HMADRDKYIIMGQQLLRAAFEHFGKKATDKALENAANKLRISDVPELYARLGSAELQPRDVINVIFPD | -0.308
22 | HMSDSLVLTGVAYVDGKPVVTLFDKVKKESLVVTDQPNLKGWTLVEATQSSDIKRATAKVNIGGEPVSIRY | -0.0165
23 | HMEKPTEITLSNRVSVQELAEKMYVSETDIIRTLFLDGRIININQVLDIDTAIRVGEQLGIKIKII | -2.14
24 | HMSGAKLLAPVTGTLLRYTVAEGTKVSEGQTVIMLESMKMELEINAHKAGVIHFTAAAGAQVAEGDSLAEI | -0.945
25 | HMTTIFDNINGELRRRHLTQQDLAKTIEIDRRTWSKWQDKNDMPASVLLQIAKWLNVTLDYLTRD | -2.57
26 | HMGDIQFMEYRINHSSGWIGKNISDFAAVSKNLVILIKRGQDVVIPRGPTAIMEDDVLVLHA | -1.88

Row | Sequence | soluble fraction (log2)
27 | HMAGTPAVVKWFNPTKGFGFVTPREAGSDALLHASVLAKQGKRWLQEGTVVEVVLEEGPKGLVVSEVLTIE | -0.457
28 | HMQLVPGIGRLSARELEVFTLIGRGLGTSEIGKKLGVSAYTVQTHRNHIKEKLNLPNAAAITYWAIQWAHG | -2.27
29 | HMDKNLQYADTPKGKLREYIKNLPNGSTVNRQKLAEEFGIKKQSMGTVTEVFQEFPDKNFKFVNP | -0.0476
30 | HMTDLVVGLAGITLEPLRPAGKAEFNGSVVDVVSLGDYIEKSTAIQIVEIEGNRIVVHHGED | -0.865
31 | HMSEFVIPLAKYNKALYTQVSLGMRFRMLFETEDSGVRRYMGTITGIGDLDPIRWKNSHWRNLQV | 0.191
32 | HMLMLTPGQVSNSLNVSTATVRRWSARFARHLSPQPPNRKRSYTPDDLATLARVRDLSASGTSLAQIDIAL | -2.59
33 | HMKQKAEVIFVSKTIMEALSKGVRLTPENLKSETELPIDDFYARLKELIDNGSVVESRENGESYLEAGN | -0.0162
34 | HMPRNEIQRSVLNELVQWIKNNLAKKLTMQALSRFSGYSEWHLFRLFRHYFNMSPMAYIRQQRMQ | -0.366
35 | HMQETKDEGAQVLLNKINALVAAVQGQIITPEEAAIKLATDGDLDLDVDARVAAIEEFNKKLSEAQNN | 0.101
36 | HMSSTSTKTQNIVHIVKSGETLSAIASKYGVSVDNIKKWNNLSSDKLSIGQKLKINPTTQTSS | 0.29
37 | HMNILDPTVMKNILDKNHEEFIAIYESAPLGQKTIINSMVFDKRLNGENVDANILMYLQNKTNIDYINIEP | -0.536
38 | HMIYQNVINLLKNRLNSSIYNIGDLLPSEKELAEHYDVSRNTLRKALKTLEEEGMIERRHGSGTYLRNK | -1.67
39 | HMHLLGASIAAYRKKAGMTQEDLGRALFVSGQAVSRWERGGTPDSDMLPKIADVLGISLDTLFGRS | -1.57
40 | HMEPMNMYSSIKKVIGVVSGKGGVGKSLVTASLARMMRAKGYHVGIMDADITGPSIPKMYGLHEMA | 0.395
41 | HMNESPVLAVLTPTERKVASLVAEGLTNQAIAARMILAEGTVKNHVSTLLHKLQAPDRTALALTLYKAFQ | -1.3
42 | HMHLTRYLHTMIRAANLDDTLDFFVEKLGLIEAYRYSNEAGRFTLVFLSAPDDLESAQSRQAPLVEITYN | -1.32
43 | HMDIEHREMKLQKLVITADSPLVGKTLKESNVRQRYNFMVVGVEEGQKNLTMINPNRRFEVGDIVWVVGEE | -0.743
44 | HMTYSSESVRYRIKSLIDNETIDEILSDDKIVNILKSQGIDVARRTVAKYREAMGLASSIQRRREKKSA | -0.707
45 | HMFLSQQDINRANAASVTDMGDIIRRTFERNAAEINGLELSDAEKKDAVKQMATLATTALKTAAGAVNPY | -0.0457
46 | HMEIIFVEHKVRPGESVWLIARKYKVKKNHILAVNNLSEKSIIRPKQILKIPTSGYDQYKKSVE | -3.79
47 | HMITLKKRRQEAILEIIEKYDLSTQDELLQKLKDSGFDATQATVSRDIKELRLVKTMGANGQYKYAVT | -0.881
48 | HMLLFNPGEVLKGFVLQSGTNNRVLLQIGDSRVIADTQTPLKAGEQLVLRVEETGPKTILQILG | 0.177
49 | HMNSVSIAPEMLNWVIAHIQMNSLPKQIVEHLTAWISGQKEPTFNQIEKVSRATGIPLGYFFLEQPPKE | -2.51
50 | HMSINTIIAKNLNRLRNERNLSLGQLAELSGVSKVMLSQIEKGDSNPTVNTIWKIASGLNVPYTAILDQP | -0.798
51 | HMQNLETVEEIKELALNYLDKYQPSKKSLQVYLFRKAIDAQSNSVEKSEILKKIETVLTDLEEQGILNDAL | -0.135
52 | HMVKLSVGDIVQFAGGPHYVSSSAAKPASSPTAGPAKVTMIYQGAKHPYHIVHTTSASTVWGWVDADKVVK | 0.0767

Row | Sequence | soluble fraction (log2)
53 | HMTRKQTIYEFLRRMKSQHGLDAVYSTEEIANAVGVSRANVSSDLNRLFEEQLVEKLPGWPVKYRA | -0.344
54 | HMQDEAQLSMSNKYIFEGNSIVKDNFIEAEKKYRLGVSAKPNNAVGSYNLANAYYNSKLYDEAMLRLL | 0.379
55 | HMEMKVIPFNQMTRDQFDQLDRFLGRLAAAQAMGSLRLTKAQQNYFLNQVKQLDLYRKRILN | -1.96
56 | HMFAVPAPEVDDILSEKKVDVLLLGPQVRYLLEQFTEKLKDKNIPIGVIPMVDYGMMNGSKVLALAEELIG | 0.131
57 | HMEDKKQVLYELITDKSYRPLRFKELAVLLMVPKALRGELKQTLDELIKEGKITVDSSSRYRAA | 0.599
58 | HMATTAGIEKYLGSGLIKGIGPIYAKKIVRKFKEDTIRIIDEEPDRLLEVEGIGQKRLEIIKQAWQQQKE | -0.651
59 | HMEDTVNVPIQINGKLRHVIQVQIGTSEEEIQKIALSEEQVKKFTDGHEILKVMVPKGKLVSIVI | -1.04
60 | HMKPSISKIYALWGVLQRSGKIKSQDKAALDAFVRKYTGVDHVKWLDESQARKIIEILKQMIA | -1.55
61 | HMNADSLIGENIRISERVSNMDQTGMAVVHGQEWTVRTRNDNEIIEPGEEAKILAISGVKLIVEK | -0.136
62 | HMPALATKDSVLDGRAEVVSYVRDTSVFYLRVRVPQKQGYRSRRIDGVSTLPEAITKALDTYMDLGT | -2.6
63 | HMDEAEELYQAVQALKPKYREVILLHYYQGLRVGEIAAILRAPQSTVSIRLRRARQMLNRMLG | -0.701
64 | HMEEIALTDILNRFLSSLSLEQRKIFMRRYWYLSPIKEIATEYGMSESKIKMSLFRSRNELKKLLEKEGI | -0.499
65 | HMKEILTNESIIQFVKDKVSEEQIIYKINNSPIDFKLDVNSMVSLAKQNVSSTIIIAMENAMNN | -1.28
66 | HMQISDSASVKTVVAEAIAANPKAVADFMNGKDTATRYLVGQVMKITKGQAKPELVNQLVLESLAELKEK | 0.361
67 | HMKIDLKQIEGVLDELAKVKGSLITILQKTQETYGYLPKEAIIYISERTGIAESEIMGVATFYTQFRL | -0.45
68 | HMDKATMRWEQIEKFLETHPYIMNADVRALFNVSAATANRILATLTTEGKLVKYREGGHWAYKY | -1.1
69 | HMVSLLDWAYKQVRRMLFSGDLPQGQKIVVAQLANQLSISPTPVKEALNRLAVEGLLEAVPRRGFQVR | -0.548
70 | HMSPAETGIYHILVENGKPNRHGLDATNKNENWLRQFLITQNTRLEDVFLLLADDGGGIRFFKSQ | -1.26
71 | HMGNLVDGINKKLTHVRDSLPEGYTLDEFKSAFQQQYPAAYDAYEGDKGKQFDKWLGNVIQSLPKK | 0.0554
72 | HMRIAGIDIPDNKRGEVALTYIFGIGRSSSKKILKSAGIDSDKQIGKWTDDESNLVRKLIRDEYTIEGDL | -0.312
73 | HMSGHIPGIKIKGVIFFDKGSSSNHIIATTENNSNLKLRVGETVQGAVLKSIHPNHVIFFHHNQLIEVGIG | -4.39
74 | HMEHIDVSGRAFDVSVSRLKRARRLTMRIDTHKQLVKISAPLHVESSTIRAFLARNQNWLEQQVEKR | -0.839
75 | HMSETIVFGQQKAINTLSSEAGLSSAELNNYLKKRYQRPLFQLTVSEGADLIQGFQDGTLTKASITQYVSQ | -0.0878
76 | HMESWEDSNIANEFKSTIKIAEKRLAEGGDHPELLEKLEALKQAIINENQTEASKLDDQVNDILFDMDD | 0.602
